From the DeepSol protein solubility set

test: soluble on expression in E. coli; label from the status in PepcDB or PDB records

Sequence | soluble on expression in E. coli
SGFEFHGYARSGVIMNDSGASTKSGAYITPAGETGGAIGRLGNQADTYVEMNLEHKQTLDNGATTRFKVMVADGQTSYNDWTASTSDLNVRQAFVELGNLPTFAGPFKGSTLWAGKRFDRDNFDIHWIDSDVVFLAGTGGGIYDVKWNDGLRSNFSLYGRNFGDIDDSSNSVQNYILTMNHFAGPLQMMVSGLRAKDNDERKDSNGNLAKGDAANTGVHALLGLHNDSFYGLRDGSSKTALLYGHGLGAEVKGIGSDGALRPGADTWRIASYGTTPLSENWSVAPAMLAQRSKDRYADGDSYQWATFNLRLIQAINQNFALAYEGSYQYMDLKPEGYNDRQAVNGSFYKLTFAPTFKVGSIGDFFSRPEIRFYTSWMDWSKKLNNYASDDALGSDGFNSGGEWSFGVQMETWF | soluble
SGQLLPQGAYREVPQYWKQAAELINREGAHTRTLVLPAASFARQTWGWTRDEPLQPLLQVPWVVRDAVPLVPPETIRGLDGVLSVVDKGAVDHLGDQLRRIGVGIVVIRHDLVAPHSGDATLTLMRSEFPDIKVHTFGSGKERVDVAILDRQAHGYLTDKLTRVAGGGEALSLLGPGDFILSDSDAEIVTDTPMLAARNYGAARRAISAPLATEAEGKDVGNPVRDYPSAARATRVVERGGHVVASSSAADATAFGGADPTRSITAAVDNDPDTAWFAAPGDRHPWLELQAESPDPHLELRITGKAGKVIIRSNNAHVAADMRPGVPTTIRIPGGATNRVRIEVAPGMGIASAQLIHSPITRVPTLPPAGPSAHTFLFQKVMVDTGLLTRGFETARPIEVTLSASHCERTITIDQVTYACGERFLLPAGYHELSTRSDWVRLSGDGKAGFVDLNGDSVFVTTQAANRGMRAFIGDHELTPISVNAGGQGFIVPKALATDDVLDVIRFEFAGEHTYRR | not soluble
SGSSEDQAYRLLNDYANGFMVSQVLFAACELGVFDLLAEAPGPLDVAAVAAGVRASAHGTELLLDICVSLKLLKVETRGGKAFYRNTELSSDYLTTVSPTSQCSMLKYMGRTSYRCWGHLADAVREGRNQYLETFGVPAEELFTAIYRSEGERLQFMQALQEVWSVNGRSVLTAFDLSVFPLMCDLGGDFFKDPLPEADLYILARVLHDWADGKCSHLLERIYHTCKPGGGILVIESLLDEDRRGPLLTQLYSLNMLVQTEGQERTPTHYHMLLSSAGFRDFQFKKTGAIYDAILARK | soluble
SHMTPDIILQRTGIDVRAVEQGDDAWHKLRLGVITASEVHNVIAKPRSGKKWPDMKMSYFHTLLAEVCTGVAPEVNAKALAWGKQYENDARTLFEFTSGVNVTESPIIYRDESMRTACSPDGLCSDGNGLELKCPFTSRDFMKFRLGGFEAIKSAYMAQVQYSMWVTRKNAWYFANYDPRMKREGLHYVVIERDEKYMASFDEIVPEFIEKMDEALAEIGFVFGEQWR | soluble
SIDSKLQTLGEQLMQGKRGAIVMIEPETGEVLCLVSSPSYDPSLLAGKDRGKNHLEMEHDRNKPLYARAIQATYPPGSTFKPAQGAIFLQEGVIRPTDAFSCYHGFPPLNNRPACHSHGSPLSLVPALATSCNAFFCWGLRAMLDNRRFYPSVQEAFEHWKNRIVGLGFGYRLGLDLPGERRGYIPNSKVYDKAYKGRWNSSTIISISIGQGEILATPLQIANLGVIIANRGRYRRPHVVKAIQGIPLDTAYTNWQNSGISPANMEYIVEGMARAVTGGTCHAANFAPGEIEVCGKTGTAENPHGKDHSAFLGFAPRNNPKVVVSVYVENGGFGAVYGVPIGRVMMEYYLREGKLSPEGEAVATKMSNTAIHYSNVF | not soluble
SKEDCLPSSHVPISDSKSIQKSELLGLLKTYNCYHEGKSFQLRHREEEGTLIIEGLLNIAWGLRRPIRLQMQDDREQVHLPSTSWMPRRPSCPLKEPSPQNGNITAQGPSIQPVHKAESSTDSSGPLEEAEEAPQLMRTKSDASCMSQRRPKCRAPGEAQRIRRHRFSINGHFYNHKTSVFTPAYGSVTNVRVNSTMTTLQVLTLLLNKFRVEDGPSEFALYIVHESGERTKLKDCEYPLISRILHGPCEKIARIFLMEADLGVEVPHEVAQYIKFEMPVLDSFVEKLKEEEEREIIKLTMKFQALRLTMLQRLEQLVEAK | soluble
SKLDSYTHLSFYEKRELFRKKLREIEGPEVTLVNEVDDEPCPSLDFQFISQYRLTQGVIPPDPNFQSGCNCSSLGGCDLNNPSRCECLDDLDEPTHFAYDAQGRVRADTGAVIYECNSFCSCSMECPNRVVQRGRTLPLEIFKTKEKGWGVRSLRFAPAGTFITCYLGEVITSAEAAKRDKNYDDDGITYLFDLDMFDDASEYTVDAQNYGDVSRFFNHSCSPNIAIYSAVRNHGFRTIYDLAFFAIKDIQPLEELTFDYAGAKDFSPVQSQKSQQNRISKLRRQCKCGSANCRGWLFG | soluble
SKREHNHRRITVTAAIGNKHRRQLATNLHAIEHHAFEHFIAWVAENHFEPEADCKLGTRLRHAGVPGQQ | soluble
SKTNHIVIIGYSRIGKCVALSLINRGDPVVIVEESKRLTDKAIADGFEVICGNIIKQDVMNAANMSNAYKVVITMCNTIEVGECIVNIRDMNKDIQIITHTLSDVDTAYLIDLGADIVVTDEEEIANGVIEHITGQRFIKNIAQS | soluble
SKVMTLKDAIAKYVHSGDHIALGGFTTDRKPYAAVFEILRQGITDLTGLGGAAGGDWDMLIGNGRVKAYINCYTANSGVTNVSRRFRKWFEAGKLTMEDYSQDVIYMMWHAAALGLPFLPVTLMQGSGLTDEWGISKEVRKTLDKVPDDKFKYIDNPFKPGEKVVAVPVPQVDVAIIHAQQASPDGTVRIWGGKFQDVDIAEAAKYTIVTCEEIISDEEIRRDPTKNDIPGMCVDAVVLAPYGAHPSQCYGLYDYDNPFLKVYDKVSKTQEDFDAFCKEWVFDLKDHDEYLNKLGATRLINLKVVPGLGYHIDMTKE | soluble
SLAGPKESRDLTLEQFQVNFLDQYTIKHAFINGVNIYRCYPGAPPNNVQMVMQRSHGTEVPGIMVNLEGQQPTVVPLDASIIGAKKLTPTTTRPLHNVRVLRVNAVMRFHPLCRARFVGPNDISFGIRSATSQSIQEHIQELTDLMKKTQQADEQAMGALYSRSSALVSKLKMSGATSNVAFLEVPQTETRWGNPWTWYRAYLPTPLGDGVETWMTPIGDSGYYITVDFNFTESERQKNTENYQRARQLMDSVLQSVVIQKR | soluble
SLDAAVGDVIVTLGADLSESDKQKVLDEMNVPDNATTVTVTNKEEHEYLGKYISNAQIGSRAISSSSITIAKKGSGLNVETHNISGITDEMYLNALMTAGVKDAKVYVTAPFEVSGTAALTGLIKAYEVSSDEAISEDVKQVANQELVTTSELGDKIGNENAAALIAKIKEEFAKNGVPDNKADIEKQVDDAASDLNVTLTDSQKNQLVSLFNKMKNADIDWGQVSDQLDKAKDKITKFIESDEGKNFIQKVIDFFVSIWNAIVSIFK | soluble
SLDIKEIVGDYNSFLDTIFELLIKGGFKENELKELPIDHICYRVSTNEFYNEKKEQLNQLGELLVETEIGGRMISTFKLNKPIQYKDKSIPLIELPAPKKNRINYDGLEHIEMVINEPFQSFVDNHPSPIDENLKFNWVLHALNKDINPDVECEFIDPRIKNEIRTISVKFHHQSLEEVVKYEIQLLKENEG | soluble
SLDPLFTTQILKYKGDESFTCNDTLVREIKLEIFINDEKVGALMATPVDEQALAIGYLMSENIIAKVSDIESIETKDDGMSVHIKAKIDKENLAKLNAEGVVISGCGRAHTANIDPEAIEASKISSDAKFSKDEILKQMSTFYTQCELYEKTGCVHTAKLFVDEKTFFIGEDIAQHNTIDKALGKACLAGVDLSQCFLMVSGRLSSEMVAKAVMHKIPVLVSRTAPTCLGVMIARKFDLTLCGFARENKINIYSGEFRIHG | soluble
SLDSEKVKVLSIEEDNQAEILKELGLPANASYYRIKRVRYSEDTPFLVHITHLPKKLVKEPLSKDLTAYASVYERVRKDFSVDLFSLASVETNEIVFPEDAELLNLLQLSFREPAVKQVKHSYLADGSVAEYIISYKHWKYFKTKIEVEAE | soluble
SLELKITDFKVFVAQANFEWAFVRIYSKDLYGTGEAGPAPGLKGMESEFIQLLIGEDAFKVNRIAEKLRYATLYSGTTVYHLISAINIALYDLIGKYLNVPIYKLLGGDKTEIPVYVDAHGGKGLEAINALHLPVNLPWIKEAEVETNRLITTNNPVHGRLSMEKWNEDYSPEAYAKRALKMKNEGYKAMKFDLDVPTPYIDLRRVRNGDLSLKDIDYMVDIVKAVRESVGDEVEIMFDLHWRYNLNTAIRICKALEPYRLRWLEDPMPAIMAVSNYDELKLLTSQCSVPIETGENLYTVYQFKDLLNTGVRVWAPDIVKAGGITEGRRIAELAAMYDIEYSPHNIASPIGTMAHAHVGSIANTFGFVEFHGHDVPFWNEIVKPKRKIIEDGVIKLTDDPGLGIDLDDEVMRKYWPTYEL | soluble
SLFITDKRVKESATALNPSMFQGLYLQDQMLKDPTYLPIYGSSELSRLDEFHPSNYFQVNNEGFTPYLVGKGGSQSLIHSLNFAAHMDQLKGKKIVFIVSPQWFIKRGSDEQHFAPNYSALQGLDLAFNDQIDPEIKKKMMKRMLRFKAVQNDAILSELYKAMVNGQTWKVNALKPAAKVYYSMLEKKDLYYSTTESSGPKRYISQSVKDKSWSELNKLADQSGKRHSGSNDFHIDNPVYKKLKPKVPKLKGKNKGRSYAVSPEYGDFEMMLDILKDAGAEPMFVTIPVNGKWYDYTGFPKKGRTDYYKKVNKQIRAKGFQVADFSGHEYDPYFMKDTIHIGWKGWVYVDKAIDEFYKTGKVTSS | soluble
SLKVNNLIAGALNLNSKDYKKSGKKVSFDKNNLFSSIFQAESVKEDKHFILLENGEFNLDLIKSMLDGINETGERLLSEPSRQNVIFYKKVISEFISIIISSSVCLKEQKGGNLGDPKRPKYRIIKIINDKLDKLAYSVLQNQMTQIKLLDSIEEIQGLLVNLLM | soluble
SLLGGPGIELFRRLVEEYEREHDVPMADIAAALAVQCRGGEAFLMAPDPPLSRRNRDQRRDRPQRPKRRPDLTTYRVAVGKRHKIGPGAIVGAIANEGGLHRSDFGQIRIGPDFSLVELPAKLPRATLKKLAQTRISGVLIDLRPYRPPDAARRHNGGKPRRKHVG | not soluble
SLLPSFFPCCRCKWSATGCGTCSTQDCEGICKMTSGEQAKTPLQAPILLTNVKPVGFGKGASQSSTDILIGGDGKIAAVGSALQAPADTQRIDAKGAFISPGWVDLHVHIWHGGTDISIRPSECGAERGVTTLVDAGSAGEANFHGFREYIIEPSRERIKAFLNLGSIGLVACNRVPELRDIKDIDLDRILECYAENSEHIVGLKVRASHVITGSWGVTPVKLGKKIAKILKVPMMVHVGEPPALYDEVLEILGPGDVVTHCFNGKSGSSIMEDEDLFNLAERCAGEGIRLDIGHGGASFSFKVAEAAIARGLLPFSISTDLHGHSMNFPVWDLATTMSKLLSVDMPFENVVEAVTRNPASVIRLDMENRLDVGQRADFTVFDLVDADLEATDSNGDVSRLKRLFEPRYAVIGAEAIAASRYIPRARKLVRHSHGYSWR | soluble
SLPIFEARVKVGISSSWVTSRKVSWRDAIAQIESDRIVVKYLKMGEVVGEDSFPFSALIDLGVRIPDELKLNPEKDHFGIKFYIPGRGELLVIFTIEENLLIYDEKKFSEFVHKVFEVLINGKTVMLQLARIIGGAVNMESKWEEGWLRVIKVKSARTQKTERSIVVIIKDKRPVSIFSDLEDIEIEEVDMNGKRVRAWKIRHFHIDQSVTSYLYIPDKQTQLYVLRYLLKYNPAIMEFIMKVSDDFPTLKSEFQEIMEKEIKELEALDEMEKQILVALYSGINPLELHQFLGVSEKEIEEIYDRMIDKGLLKIVMIRKIVDLTNEGRKIVNKLLKYGLVSM | soluble
